Laboratory results from patent US20030027781.

Tested on: RBC ghost membrane 105 kDa protein (unidentified; disulfide-linked dimer, ~210 kDa non-reduced) (Homo sapiens)
Assay: filter
Details: Scatchard on RBC ghosts, 1600 sites per cell; target assigned to 105 kDa protein by crosslinking

AACTCAGTGGTAGGTAACGGTT [c56t]
Kd: 4 nM
